From US20230122079A1 (published 2023) come the findings set out here.

Assay [1] has as its target CD3 on Jurkat cells (human). The experiment in a line: cell ELISA. (In general: An ELISA detects its analyte on a solid surface through an enzyme-linked reagent.)
The target in assay [2] is CD3 on Jurkat cells (human). Description: cell ELISA; -uPa.
Assay [3] deals with CD3 on Jurkat cells (human). The experiment in a line: cell ELISA; +uPa.

For orientation: EC50 means the concentration that produces a half-maximal response. Higher therefore signals lower potency in that assay.

CD3 on Jurkat cells (human), sequence (chain, as listed by the source, chain 1 of 4): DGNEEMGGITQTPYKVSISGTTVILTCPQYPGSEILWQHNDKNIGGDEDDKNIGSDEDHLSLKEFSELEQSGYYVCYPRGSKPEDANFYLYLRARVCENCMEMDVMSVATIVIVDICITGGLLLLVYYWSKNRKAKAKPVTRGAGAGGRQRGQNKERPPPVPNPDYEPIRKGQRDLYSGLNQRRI
CD3 on Jurkat cells (human), sequence (chain, as listed by the source, chain 2 of 4): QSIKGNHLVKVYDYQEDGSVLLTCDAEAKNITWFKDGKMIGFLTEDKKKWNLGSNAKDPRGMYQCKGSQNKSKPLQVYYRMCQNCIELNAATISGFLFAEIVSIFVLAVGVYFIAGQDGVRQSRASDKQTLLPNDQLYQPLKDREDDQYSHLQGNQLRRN
CD3 on Jurkat cells (human), sequence (chain, as listed by the source, chain 3 of 4): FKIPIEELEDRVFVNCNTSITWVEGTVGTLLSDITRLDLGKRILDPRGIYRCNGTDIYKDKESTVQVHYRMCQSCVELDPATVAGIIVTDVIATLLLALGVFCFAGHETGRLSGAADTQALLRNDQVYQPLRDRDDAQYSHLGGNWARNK
CD3 on Jurkat cells (human), sequence (chain, as listed by the source, chain 4 of 4): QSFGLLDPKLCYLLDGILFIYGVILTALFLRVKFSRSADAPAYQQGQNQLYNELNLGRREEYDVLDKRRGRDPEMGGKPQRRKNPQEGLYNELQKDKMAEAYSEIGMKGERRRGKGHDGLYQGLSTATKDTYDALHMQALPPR

B1: 31929 (Half-masked CD3 × Her2 Fab × scFv Fc, HA PD-1 attached to HC) (bispecific antibody)
heavy: not shown
light: DIQMTQSPSSLSASVGDRVTMTCSASSSVSYMNWYQQKPGKAPKRWIYDSSKLASGVPARFSGSGSGTDYTLTISSLQPEDFATYYCQQWSRNPPTFGGGTKLQITRTVAAPSVFIFPPSDEQLKSGTASVVCLLNNFYPREAKVQWKVDNALQSGNSQESVTEQDSKDSTYSLSSTLTLSKADYEKHKVYACEVTHQGLSSPVTKSFNRGEC
chain: not shown
Molecule B1 yielded an EC50 with CD3 on Jurkat cells [1] of 4.2 nM.

B2: 30421 (CD3 × Her2 Fab × scFv Fc without mask) (bispecific antibody)
heavy: not shown
light: B1 light
chain: not shown
In the assay with CD3 on Jurkat cells [1], B2 registered an EC50 of 1.22 nM.

B3: 30436 (WT PD-1: HA PD-L1 masked CD3 × Her2 Fab × scFv Fc, PD-1 cleavable), not treated with uPa (bispecific antibody)
heavy: not shown
light: AFTVTVPKDLYVVEYGSNMTIECKFPVEKQLDLAALQVFWMMEDKNIIQFVHGEEDLKVQHSSYRQRARLLKDQLSLGNAALQITDVKLQDAGVYTCLIAYKGADYKRITVKVNAEAAAKEAAAKDIQMTQSPSSLSASVGDRVTMTCSASSSVSYMNWYQQKPGKAPKRWIYDSSKLASGVPARFSGSGSGTDYTLTISSLQPEDFATYYCQQWSRNPPTFGGGTKLQITRTVAAPSVFIFPPSDEQLKSGTASVVCLLNNFYPREAKVQWKVDNALQSGNSQESVTEQDSKDSTYSLSSTLTLSKADYEKHKVYACEVTHQGLSSPVTKSFNRGEC
chain: not shown
As for B3, the EC50 in the assay with CD3 on Jurkat cells [2] stood at 178 nM. That is a sub-micromolar value.

B4: 30436 treated with uPa (bispecific antibody)
heavy: not shown
light: B3 light
chain: not shown
The molecule B4 returned an EC50 in the assay with CD3 on Jurkat cells [3] of 6.22 nM. This counts as single-digit nanomolar.

B5: 31931 (Half-masked CD3 × Her2 Fab × scFv Fc, HA PD-L1 attached to LC) (bispecific antibody)
heavy: not shown
light: B3 light
chain: not shown
As for B5, in the assay with CD3 on Jurkat cells [1], the midpoint of the response, the EC50, lay at 5.33 nM. This counts as single-digit nanomolar.
